Biological target: T1, P10VF-Lig (ATP-dependent DNA ligase) (Rhizobium phage vB_RleM_P10VF, UniProt A0A076YM08)
T1 sequence: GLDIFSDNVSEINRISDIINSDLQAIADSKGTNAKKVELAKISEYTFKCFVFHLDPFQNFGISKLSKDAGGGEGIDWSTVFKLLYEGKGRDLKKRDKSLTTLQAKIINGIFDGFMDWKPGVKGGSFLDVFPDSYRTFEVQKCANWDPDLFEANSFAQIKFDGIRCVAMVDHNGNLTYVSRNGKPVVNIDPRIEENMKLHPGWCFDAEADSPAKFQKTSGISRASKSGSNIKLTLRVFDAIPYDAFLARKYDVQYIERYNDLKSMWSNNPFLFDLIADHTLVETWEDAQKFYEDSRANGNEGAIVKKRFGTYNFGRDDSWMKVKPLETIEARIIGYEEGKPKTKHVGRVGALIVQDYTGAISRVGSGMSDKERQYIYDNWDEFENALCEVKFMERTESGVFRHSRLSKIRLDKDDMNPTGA
Test: X-ray crystallography; AMP transferred to the DNA 5'-phosphate (step 2 intermediate); EDTA 5 mM; 2.2 Å; Crystallization: protein in 50 mM Tris pH 7.5, 200 mM NaCl, 1 mM beta-mercaptoethanol; 1.2 eq nicked duplex, 5 mM EDTA, 30 min on ice; 24% PEG 4000, 100 mM bis-Tris pH 5.5, 4 °C (278 K in Table 2)
Conditions: protein: recombinant, SeMet-substituted, 21 bp, blunt ends

B1: nicked DNA duplex (21 nt complement, 10 + 11 nt nicked strand) (dsDNA)
DNA 1: TTCCGACAGTGGGGTCGCAAT
DNA 2: ATTGCGACCC
DNA 3: CACTATCGGAA
modifications: 2'-O-methyl one nucleotide upstream of the 3' terminus at the nick (strand 2); 5'-phosphate at the nick (strand 3), adenylated (AMP) in the crystal
Q: Does B1 bind?
A: binds

Source: PMC12121391, “Crystal structure of ATP-dependent DNA ligase from Rhizobium phage vB_RleM_P10VF”
